Experimental findings from patent US20150353950A1, “TRANSGENIC PLANTS” (Durham University, priority 2012, published 2015) are described below.

Assay [1] has as its system GFP:RGA. Nature of the assay: Immunoprecipitation of GFP:RGA from pRGA::GFP:RGA seedlings sprayed with GA3. Type of assay: in vivo, Arabidopsis. As to conditions: seedlings sprayed with GA3 (10 μM), harvested at different time points. How it is done: FIGS. 7A-D. RGA and GAI are SUMOylated in vivo. a, Immunoprecipitation of GFP proteins from 35S::GFP or 35S::GFP:NPR1 (NON EXPRESSER OF PR GENES) young seedlings sprayed with 1 mM Salicylic acid (+SA) or control (−SA). Numbers indicate molecular mass (kDa), arrowhead, the GFP:NPR1 or GFP proteins. Ponceau staining of the Rubisco large subunit serves as a loading control. b, in vitro deSUMOylation of plant-derived GFP:RGA by recombinant SUMO protease subunits of SENP1 and SENP2. c, immunoprecipitation of equal amount of total proteins derived from pRGA::GFP:RGA seedlings or a transgenic line (Col-0) expressing GAI:GFP (35S::GAI:GFP). 9 days old seedlings were grown in petri dishes in the absence (−) or presence (+) of PAC (0.1 μM). […]
Total proteins were extracted by homogenizing fresh Arabidopsis seedlings in the presence of ice cold extraction buffer—150 mM NaCl, 1% Igepal CA-630, 0.5% sodium deoxycholate, 0.1% SDS, 1 mM EDTA, 50 mM Tris HCl, pH 8.0 and freshly added protease inhibitor cocktail (Roche) and 10 mM N-ethylmaleimide (NEM). The homogenates were clarified by spinning 10 min at 4° C. at 13000×g and the supernatant quantified with the Bradford assay. […] Total proteins were quantified with the Bradford reagent and an equal amount of proteins was precipitated with five volumes of cold acetone. […]

For assay [2], the target named is T1, His:proAtSUMO1 (Arabidopsis, UniProt P55852 1-100).
T1 construct: Probe of the far-western assay on spotted SIM peptides (10 ug/ml); also called recombinant His:proAtSUMO1; not shown: His tag
T1 sequence (P55852 whole entry): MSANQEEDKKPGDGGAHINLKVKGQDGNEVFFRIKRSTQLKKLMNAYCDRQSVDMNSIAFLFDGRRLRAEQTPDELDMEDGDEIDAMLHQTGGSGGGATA
The assay is described as follows: peptide array probed with SUMO1 (FIG. 10a).

Assay [3] addresses T1, His:proAtSUMO1. The assay is described as follows: far-western on spotted peptides. Here is the method: (§1) Peptides corresponding to the putative SIMs in GID1 were purchased from Cambridge Research Biochemicals. 1 μg of each peptide was spotted on a PVDF membrane. Membranes were washed in 100% Ethanol, equilibrated in TBST (25 mM Tris HCl, pH 8.0, 150 mM NaCl, 0.05% Tween 20) and blocked in TBST-Milk 5%. Peptides were probed overnight at 4° C. with recombinant His:proAtSUMO1 (10 μg/ml), washed and subsequently probed with SUMO1 antibodies for standard chemoluminescence-based detection.

In assay [4] the target is T1, His:proAtSUMO1. Nature of the assay: far-western on spotted peptides SIM A and SIM B. How it is done: as §1
Assay [5] concerns the target T2, SUMOylated GFP:RGA (plant-derived) (Arabidopsis, UniProt P55852 1-93, SUMO1 conjugated; lysine 65 of RGA is the critical amino acid for SUMO attachment).
T2 construct: the preparation is a mixture of SUMOylated and non-SUMOylated forms; also called SUMOylated RGA; SUMOylated DELLA; not shown: GFP fused N-terminally to RGA in the pRGA::GFP:RGA line
The assay is described as follows: GST pull down of plant-derived GFP:RGA with recombinant GST:GID1a, with or without 10 µM GA3. Here is the method:
GA3 was added at a final concentration of 10 μM. Proteins were pulled-down using the μMACS GST Isolation Kit, according to the manufacturers' instruction (Miltenyi biotech). […] The eluate was dialyzed against 50 mM Tris HCl, pH 7.5, 50 mM NaCl, 1 mM DTT. Plant purified GFP:RGA proteins were split into different tubes and incubated with recombinant GST:GID1a (0.1 μg) or GST proteins in 1× reaction buffer (with freshly added protease inhibitor cocktail) in the presence or absence of 10 μM GA3. GST-bound proteins were pulled-down using the μMACS GST Isolation Kit, washed four times with 1× reaction buffer and eluted according to the manufacturers' instruction.

Assay [6] concerns the target T3, SUMOylated GFP:RGA (Arabidopsis thaliana, UniProt Q9SLH3).
T3 construct: expressed in transfected cells; host or cells: pRGA::GFP:RGA transgenic Arabidopsis plants (Ler background)
The assay is described as follows: On-column deSUMOylation assay of plant-derived GFP:RGA. It is filed as biochemical. As to conditions: 5-10 μg recombinant protease, typically 1-2 hours at room temperature. An excerpt:
FIGS. 2A-G. SUMOylation is a novel DELLA modification affecting DELLA accumulation. a, Immunoprecipitation of GFP:RGA proteins. […] His:RGAK65R is not SUMOylated. […] In bold characters, the conserved lysine residues, shaded area, the non-canonical SUMOylation motif. Alignment discloses SEQ ID NOS 41, 76-77, 42, and 78-82, respectively, in order of appearance. e, SUMOylated GFP:RGA accumulation upon NaCl treatment. f, SUMOylated GFP:RGA accumulation in wild-type (OTS1 OTS2) or mutants (ots1 ots2) plants. g, accumulation of GFP:RGA at different concentrations of NaCl. Wild-type extracts (Col-0) were used as a negative control.
GFP:RGA proteins were affinity captured from total proteins extracts of pRGA::GFP:RGA transgenic plants with the μMACS GFP Isolation Kit. Magnetic beads were eluted from the columns with 50 μl of 20 mM Tris HCl, pH 7.5 and split into different tubes. Purified GFP:RGA proteins were incubated with 5-10 μg of recombinant OTS1 or OTS1C526S, or 300 ng of GST tagged human SENP1 or SENP (42) (catalytic domain) (Enzo life sciences). After incubation (typically 1-2 hours at room temperature), the beads were applied to the column, washed and bound proteins eluted with SDSPAGE loading buffer.

T2 sequence (chain, as listed by the source limits assumed, chain 1 of 2): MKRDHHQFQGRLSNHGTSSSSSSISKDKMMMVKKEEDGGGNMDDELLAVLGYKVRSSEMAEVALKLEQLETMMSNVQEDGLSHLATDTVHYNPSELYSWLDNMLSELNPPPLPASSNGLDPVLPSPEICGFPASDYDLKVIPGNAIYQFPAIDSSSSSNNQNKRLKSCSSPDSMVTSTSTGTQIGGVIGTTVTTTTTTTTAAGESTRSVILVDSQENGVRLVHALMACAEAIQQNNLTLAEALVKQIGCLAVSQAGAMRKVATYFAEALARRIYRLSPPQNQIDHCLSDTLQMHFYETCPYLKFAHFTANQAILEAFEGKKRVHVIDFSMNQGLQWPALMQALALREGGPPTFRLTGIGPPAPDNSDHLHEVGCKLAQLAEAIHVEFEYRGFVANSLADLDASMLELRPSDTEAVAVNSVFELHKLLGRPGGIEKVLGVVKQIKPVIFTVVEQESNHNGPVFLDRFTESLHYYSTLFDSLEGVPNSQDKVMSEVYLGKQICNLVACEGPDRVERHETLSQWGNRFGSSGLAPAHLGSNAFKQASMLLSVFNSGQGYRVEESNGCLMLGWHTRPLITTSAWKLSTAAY
T2 sequence (P55852 1-93 limits assumed, chain 2 of 2): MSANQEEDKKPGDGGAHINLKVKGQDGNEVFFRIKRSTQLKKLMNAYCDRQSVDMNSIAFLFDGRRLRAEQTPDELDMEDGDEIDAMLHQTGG
T3 sequence (Q9SLH3 whole entry): as the sequence (chain, as listed by the source limits assumed, chain 1 of 2) above
T3 sequence (P55852 1-93 partner limits assumed): as the sequence (P55852 1-93 limits assumed, chain 2 of 2) above

For the molecule `C=C1C[C@]23C[C@@]1(O)CC[C@H]2[C@@]12C=C[C@H](O)[C@@](C)(C(=O)O1)[C@H]2[C@@H]3C(=O)O` [GA, gibberellic acid], the “abundance of SUMOylated and non-SUMOylated RGA after GA treatment” value in assay [1] is “induced a rapid disappearance of both SUMOylated and non-SUMOylated RGA forms”.

B1: SIM “B” peptide of AtGID1a (peptide array of FIG. 10) (peptide)
peptide: VVPLNTWVLISNF
notes: also called AtGID1a SIM
Regarding B1, in assay [2], the binding result is listed as “binds”.

B2: SIM B peptide of GID1a (peptide)
peptide: VVPLNTWVLISN
notes: Synthetic peptide, 1 ug spotted on PVDF
For B2, in assay [3], the binding result is “binds”.

B3: SIM A peptide of GID1a (peptide)
peptide: LIESRTVVPLNTW
notes: Synthetic peptide (Cambridge Research Biochemicals), 1 ug spotted on PVDF
With B3, the binding result in assay [4] is on record as “no binding”.

B4: GST:GID1a (receptor)
chain: MAASDEVNLIESRTVVPLNTWVLISNFKVAYNILRRPDGTFNRHLAEYLDRKVTANANPVDGVFSFDVLIDRRINLLSRVYRPAYADQEQPPSILDLEKPVDGDIVPVILFFHGGSFAHSSANSAIYDTLCRRLVGLCKCVVVSVNYRRAPENPYPCAYDDGWIALNWVNSRSWLKSKKDSKVHIFLAGDSSGGNIAHNVALRAGESGIDVLGNILLNPMFGGNERTESEKSLDGKYFVTVRDRDWYWKAFLPEGEDREHPACNPFSPRGKSLEGVSFPKSLVVVAGLDLIRDWQLAYAEGLKKAGQEVKLMHLEKATVGFYLLPNNNHFHNVMDEISAFVNAEC
notes: GID1a ORF (pLCG66) recombined into pDEST15; also called recombinant GST-tagged GID1a; GST-tagged GID1a; not shown: glutathione S-transferase (GST) tag of the GATEWAY destination vector pDEST15
For the molecule B4, the binding result in assay [5] is reported as “binds”.

B5: OTS1: purified recombinant OTS1 SUMO protease (protein)
chain: MTKRKKEVIDVDCSEKKDFVIDWSSAMDKEDEVPELEIVNTTKPTPPPPPTFFSDDQTDSPKLLTDRDLDEQLERKKAILTLGPGLPDKGEKIRLKIADLEEEKQRRVLEGSKMEVDRSSKVVSSTSSGSDVLPQGNAVSKDTSRGNADSKDTSRQGNADSKEVSRSTFSAVFSKPKTDSQSKKAFGKELEDLGCERRKHKAGRKPVTRLSNGWRLLPDVGKAEHSAKQFDSGLKESKGNKKSKEPYGKKRPMESSTYSLIDDDDDDDDDDDNDTSGHETPREWSWEKSPSQSSRRRKKSEDTVINVDEEEAQPSTVAEQAAELPEGLQEDICYPTRDDPHFVQVCLKDLECLAPREYLTSPVMNFYMRFLQQQISSSNQISADCHFFNTYFYKKLSDAVTYKGNDKDAFFVRFRRWWKGIDLFRKAYIFIPIHEDLHWSLVIVCIPDKKDESGLTILHLDSLGLHSRKSIVENVKRFLKDEWNYLNQDDYSLDLPISEKVWKNLPRRISEAVVQVPQQKNDFDCGPFVLFFIKRFIEEAPQRLKRKDLGMFDKKWFRPDEASALRIKIRNTLIELFRVSDQTE
modifications: left off: small tags and cut ends
notes: purified recombinant OTS1 SUMO protease
As to B5, the “deSUMOylation of SUMOylated GFP:RGA” value in assay [6] is “dramatic reduction of the higher molecular weight, anti-SUMO1 cross-reacting bands”.
